The record followed here is patent publication US20200317768A1 (published 2020).

What all share (assay): SPR (BIACORE), 25 C, antibody captured, FcgR as analyte; KD of SG1 divided by KD of variant;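 further: relative to parent M103205H795-SG1 carrying the SG1 human heavy chain constant region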
A general note: Surface plasmon resonance follows binding to a sensor surface in real time, without labels.

The target of experiment [1] is T1, human FcγRIIb extracellular domain, His-tagged (human, UniProt P31994 43-217).
T1 construct: also called FcgRIIb (human); not shown: C-terminal His-tag
T1 sequence: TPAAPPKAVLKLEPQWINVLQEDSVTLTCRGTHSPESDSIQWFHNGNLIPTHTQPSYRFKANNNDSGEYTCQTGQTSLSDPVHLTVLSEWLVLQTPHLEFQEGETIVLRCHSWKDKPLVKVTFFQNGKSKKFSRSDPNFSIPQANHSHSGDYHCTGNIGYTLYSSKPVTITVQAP
As for the experimental part:
(§1) The kinetic analysis of interactions between these antibodies and FcγR was carried out using BIACORE® T200 or BIACORE® 4000 (GE Healthcare). HBS-EP+ (GE Healthcare) was used as the running buffer, and the measurement temperature was set to 25° C. A chip produced by immobilizing Protein A. Protein A/G or mouse anti-human IgG kappa light chain (BD Biosciences) onto a Series S Sensor Chip CM4 or CM5 (GE Healthcare) by the amine-coupling method was used. […] After the measurement, the antibody captured on the chip was washed off by allowing reaction with 10 mM glycine-HCl, pH1.5 and 25 mM NaOH so that the chip was regenerated and used repeatedly. The sensorgrams obtained as measurement results were analyzed by the 1:1 Langmuir binding model using the BIACORE® Evaluation Software to calculate the binding rate constant ka (L/mol/s) and dissociation rate constant kd (l/s), and the dissociation constant KD (mol/L) was calculated from these values. […] Regarding such interactions, KD values were calculated using the following 1:1 binding model described in BIACORE® T100 Software Handbook BR1006-48 Edition AE.

In experiment [2] the target is T2, human FcγRIIIaV extracellular domain, His-tagged (human, UniProt P08637 17-208).
T2 construct: also called human FcγRIIIa (V158); FcgRIIIaV; not shown: C-terminal His-tag
T2 sequence (P08637 17-208 F176V): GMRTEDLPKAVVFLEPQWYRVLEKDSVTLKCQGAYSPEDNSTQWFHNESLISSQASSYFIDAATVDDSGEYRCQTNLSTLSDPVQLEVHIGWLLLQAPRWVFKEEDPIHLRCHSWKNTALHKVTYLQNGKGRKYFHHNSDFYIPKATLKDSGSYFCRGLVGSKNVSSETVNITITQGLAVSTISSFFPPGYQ
As to the method: as §1

The target in experiment [3] is T3, human FcγRIIaR extracellular domain, His-tagged (human, UniProt P12318 34-217).
T3 construct: also called human FcγRIIa (type R); FcgRIIaR; not shown: C-terminal His-tag
T3 chain: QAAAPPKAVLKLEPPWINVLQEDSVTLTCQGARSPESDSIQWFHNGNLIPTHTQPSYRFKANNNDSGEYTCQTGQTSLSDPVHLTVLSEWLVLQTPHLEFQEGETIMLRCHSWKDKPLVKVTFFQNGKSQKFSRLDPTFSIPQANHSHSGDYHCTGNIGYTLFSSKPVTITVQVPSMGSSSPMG
As for the experimental part: as §1

Experiment [4] has as its target T4, cynomolgus monkey FcγRIIIaS extracellular domain, His-tagged (cynomolgus monkey, UniProt Q8SPW2 21-206 at identity 1.00)).
T4 construct: also called cyno FcγRIIIaS; FcgRIIIaS; not shown: C-terminal His-tag
T4 chain: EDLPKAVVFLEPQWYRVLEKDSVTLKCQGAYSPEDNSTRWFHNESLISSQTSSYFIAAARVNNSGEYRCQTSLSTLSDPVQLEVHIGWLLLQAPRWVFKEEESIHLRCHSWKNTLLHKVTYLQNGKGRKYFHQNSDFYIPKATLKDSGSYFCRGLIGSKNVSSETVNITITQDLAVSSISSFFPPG
As for the experimental part:
as §1

For experiment [5], the target named is T5, cynomolgus monkey FcγRIIb extracellular domain, His-tagged (cynomolgus monkey).
T5 construct: also called cyno FcγRIIb; cynoFcγRIIb; not shown: C-terminal His-tag
T5 chain: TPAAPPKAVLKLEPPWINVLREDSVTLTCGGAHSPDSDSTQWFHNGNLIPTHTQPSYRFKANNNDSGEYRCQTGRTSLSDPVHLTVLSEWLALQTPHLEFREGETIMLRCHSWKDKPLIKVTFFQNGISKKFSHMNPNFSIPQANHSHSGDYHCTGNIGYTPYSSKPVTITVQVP
As to the method: as §1

Experiment [6] deals with T6, cynomolgus monkey FcγRIIa1 extracellular domain, His-tagged (cynomolgus monkey).
T6 construct: also called cyno FcγRIIa1; FcgRIIa1; not shown: C-terminal His-tag
T6 chain: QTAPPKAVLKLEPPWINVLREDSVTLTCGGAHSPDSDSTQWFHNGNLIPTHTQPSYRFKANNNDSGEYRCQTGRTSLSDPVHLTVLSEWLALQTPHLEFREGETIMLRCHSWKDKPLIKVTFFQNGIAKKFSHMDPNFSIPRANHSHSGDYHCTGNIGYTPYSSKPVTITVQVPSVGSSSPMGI
As to the method: as §1

For experiment [7], the target named is T7, human FcγRIIaH extracellular domain, His-tagged (human, UniProt P12318 34-217).
T7 construct: also called human FcγRIIa (type H); FcgRIIaH; not shown: C-terminal His-tag
T7 sequence: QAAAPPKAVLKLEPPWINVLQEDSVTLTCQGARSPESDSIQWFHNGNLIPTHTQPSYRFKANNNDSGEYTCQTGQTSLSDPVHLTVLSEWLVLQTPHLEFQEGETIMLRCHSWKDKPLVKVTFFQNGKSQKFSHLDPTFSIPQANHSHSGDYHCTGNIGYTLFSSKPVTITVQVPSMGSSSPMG
As for the experimental part: as §1

Experiment [8] has as its target T8, cynomolgus monkey FcγRIIa2 extracellular domain, His-tagged (cynomolgus monkey).
T8 construct: also called cyno FcγRIIa2; FcgRIIa2; not shown: C-terminal His-tag
T8 chain: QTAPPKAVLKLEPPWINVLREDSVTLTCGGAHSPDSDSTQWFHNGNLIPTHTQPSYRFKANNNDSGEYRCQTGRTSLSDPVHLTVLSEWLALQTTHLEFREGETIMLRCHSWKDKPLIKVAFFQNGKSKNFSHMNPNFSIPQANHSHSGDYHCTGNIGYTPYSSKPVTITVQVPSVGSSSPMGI
As for the experimental part: as §1

In experiment [9] the target is T9, cynomolgus monkey FcγRIIa3 extracellular domain, His-tagged (cynomolgus monkey).
T9 construct: also called cyno FcγRIIa3; FcgRIIa3; not shown: C-terminal His-tag
T9 chain: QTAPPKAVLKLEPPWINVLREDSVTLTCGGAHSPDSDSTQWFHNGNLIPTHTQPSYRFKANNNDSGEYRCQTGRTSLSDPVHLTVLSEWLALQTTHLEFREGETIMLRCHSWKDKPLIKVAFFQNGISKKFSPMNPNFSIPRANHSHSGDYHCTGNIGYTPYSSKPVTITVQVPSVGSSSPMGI
As to the method: as §1

B1: M103205H795-MY450 / M103202L889-SK1 (antibody, human IgG1, kappa)
heavy: QVTLKESGPVLVKPTETLTLTCTVSGIDLSHDDISWVRQAPGKGLEWVGIISYAGSTYYASWAKGRLTISKDTSKNQVVLTMTNMDPVDTATYYCARGVPAYSHGGDLWGQGTLVTVSSASTKGPSVFPLAPSSKSTSGGTAALGCLVKDYFPEPVTVSWNSGALTSGVHTFPAVLQSSGLYSLSSVVTVPSSSLGTQTYICNVNHKPSNTKVDKKVEPKSCDKTHTCPPCPAMELLTGPSVFLFPPKPKDTLMISRTPEVTCVVVDVSDEDPEVKFNWYVDGVEVHNAKTKPREEQYNSTYRVVSVLTVLHQDWLNGKEYKCKVSNKALPKPIEKTISKAKGQPREPQVYTLPPSREEMTKNQVSLTCLVKGFYPSDIAVEWESNGQPENNYKTTPPVLDSDGSFFLYSKLTVDKSRWQQGNVFSCSVMHEALHNHYTQKSLSLSP
light: DIVMTQSPATLSLSPGERATLSCTSSQSVYHANWLSWFQQKPGQPPKLLIYWASTLAYGVPSRFSGSGSGTDFTLTISSLQPEDAATYYCAGGYGGGRYAFGQGTKVEIKRTVAAPSVFIFPPSDEQLKSGTASVVCLLNNFYPREAKVQWKVDNALQSGNSQESVTEQDSKDSTYSLSSTLTLSKADYEKHKVYACEVTHQGLSSPVTKSFNRGEC
notes: substitution positions are EU numbers
As for B1, the “KD fold (SG1 = 1)” value in experiment [1] amounted to 9.3 fold; in [2] it was 0.3 fold; in [3], 9.2 fold; in experiment [4], 0.3 fold; in [5], 6.4 fold; in experiment [6] it was 2.3 fold. The “KD fold (SG1 = 1)” value was found to be 5.8 fold in experiment [7], 4.6 fold in [8] and 7.7 fold in experiment [9].

B2: M103205H795-MY451 / M103202L889-SK1 (antibody, human IgG1, kappa)
heavy: QVTLKESGPVLVKPTETLTLTCTVSGIDLSHDDISWVRQAPGKGLEWVGIISYAGSTYYASWAKGRLTISKDTSKNQVVLTMTNMDPVDTATYYCARGVPAYSHGGDLWGQGTLVTVSSASTKGPSVFPLAPSSKSTSGGTAALGCLVKDYFPEPVTVSWNSGALTSGVHTFPAVLQSSGLYSLSSVVTVPSSSLGTQTYICNVNHKPSNTKVDKKVEPKSCDKTHTCPPCPANELLTGPSVFLFPPKPKDTLMISRTPEVTCVVVDVSDEDPEVKFNWYVDGVEVHNAKTKPREEQYNSTYRVVSVLTVLHQDWLNGKEYKCKVSNKALPKPIEKTISKAKGQPREPQVYTLPPSREEMTKNQVSLTCLVKGFYPSDIAVEWESNGQPENNYKTTPPVLDSDGSFFLYSKLTVDKSRWQQGNVFSCSVMHEALHNHYTQKSLSLSP
light: DIVMTQSPATLSLSPGERATLSCTSSQSVYHANWLSWFQQKPGQPPKLLIYWASTLAYGVPSRFSGSGSGTDFTLTISSLQPEDAATYYCAGGYGGGRYAFGQGTKVEIKRTVAAPSVFIFPPSDEQLKSGTASVVCLLNNFYPREAKVQWKVDNALQSGNSQESVTEQDSKDSTYSLSSTLTLSKADYEKHKVYACEVTHQGLSSPVTKSFNRGEC
notes: as for B1
Turning to B2, the “KD fold (SG1 = 1)” value in experiment [1] was determined as 1.5 fold; in experiment [2], 0.1 fold; in experiment [3], 1.7 fold; in [4] it was 0.1 fold; in experiment [5], 1.8 fold; in experiment [6], 0.9 fold. In addition, the “KD fold (SG1 = 1)” value in experiment [7] amounted to 1.7 fold; in [8] it was 1.2 fold; in experiment [9], 1.5 fold.

B3: M103205H795-MY452 / M103202L889-SK1 (antibody, human IgG1, kappa)
heavy: QVTLKESGPVLVKPTETLTLTCTVSGIDLSHDDISWVRQAPGKGLEWVGIISYAGSTYYASWAKGRLTISKDTSKNQVVLTMTNMDPVDTATYYCARGVPAYSHGGDLWGQGTLVTVSSASTKGPSVFPLAPSSKSTSGGTAALGCLVKDYFPEPVTVSWNSGALTSGVHTFPAVLQSSGLYSLSSVVTVPSSSLGTQTYICNVNHKPSNTKVDKKVEPKSCDKTHTCPPCPAQELLTGPSVFLFPPKPKDTLMISRTPEVTCVVVDVSDEDPEVKFNWYVDGVEVHNAKTKPREEQYNSTYRVVSVLTVLHQDWLNGKEYKCKVSNKALPKPIEKTISKAKGQPREPQVYTLPPSREEMTKNQVSLTCLVKGFYPSDIAVEWESNGQPENNYKTTPPVLDSDGSFFLYSKLTVDKSRWQQGNVFSCSVMHEALHNHYTQKSLSLSP
light: DIVMTQSPATLSLSPGERATLSCTSSQSVYHANWLSWFQQKPGQPPKLLIYWASTLAYGVPSRFSGSGSGTDFTLTISSLQPEDAATYYCAGGYGGGRYAFGQGTKVEIKRTVAAPSVFIFPPSDEQLKSGTASVVCLLNNFYPREAKVQWKVDNALQSGNSQESVTEQDSKDSTYSLSSTLTLSKADYEKHKVYACEVTHQGLSSPVTKSFNRGEC
notes: as for B1
With B3, the “KD fold (SG1 = 1)” value in experiment [1] stood at 1.6 fold; in experiment [2], 0.1 fold; in experiment [3], 1.8 fold; in [4], 0.1 fold; in experiment [5], 2 fold; in experiment [6], 0.9 fold. For the same molecule, the “KD fold (SG1 = 1)” value in [7] was 1.9 fold; in [8], 1.6 fold; in [9] it was 1.6 fold.
